{"source": "paper PMC6582607", "about": "“Development of a novel ssDNA aptamer targeting neutrophil gelatinase-associated lipocalin and its application in clinical trials”", "binders": {"B1": {"name": "NA36 (ssDNA)", "DNA": "AGCAGCACAGAGGTCAGATGCCCATATGCTACTTTGCACACATCCTGGATAGGCTCCTATGCGTGCTACCGTGAA"}, "B2": {"name": "NA53 (ssDNA)", "DNA": "AGCAGCACAGAGGTCAGATGGCGCTGGATAGCAAGATCACGTTATCATCGTAAACCCTATGCGTGCTACCGTGAA"}, "B3": {"name": "NA42 (ssDNA)", "DNA": "AGCAGCACAGAGGTCAGATGCCGTGCGGATGTACAGGGACTTGGATAGTTTCTGACCTATGCGTGCTACCGTGAA"}, "B4": {"name": "NA37 (ssDNA)", "DNA": "B1 DNA"}, "B5": {"name": "NA40 (ssDNA)", "DNA": "B2 DNA"}, "B6": {"name": "NA39 (ssDNA)", "DNA": "B2 DNA"}, "B7": {"name": "NA27 (ssDNA)", "DNA": "B2 DNA with A47G"}}, "note": "Where a chain is given by its changes, count along the chain named.", "data": [{"molecular_target": "T1, NGAL (neutrophil gelatinase-associated lipocalin) (UniProt P80188 21-198)", "T1 sequence (P80188 21-198)": "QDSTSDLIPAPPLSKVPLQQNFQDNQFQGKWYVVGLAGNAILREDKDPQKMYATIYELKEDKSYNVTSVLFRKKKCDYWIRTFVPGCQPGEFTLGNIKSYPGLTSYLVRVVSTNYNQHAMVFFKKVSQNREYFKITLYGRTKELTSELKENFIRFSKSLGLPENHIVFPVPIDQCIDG", "assay": "magnetic bead pull-down, qPCR; binding buffer (composition and pH not in material), room temperature, 1 h, NGAL-coated magnetic beads (about 0.20 ug NGAL per uL beads)", "units": {"Kd": "nM"}, "values": [{"binder": "B1", "Kd": 43.6}, {"binder": "B2", "Kd": 32.5}, {"binder": "B3", "Kd": 66.5}]}, {"molecular_target": "T1, NGAL (neutrophil gelatinase-associated …)", "assay": "magnetic bead pull-down, qPCR; 20 nM; binding buffer (composition and pH not in material), room temperature, 1 h, NGAL-coated magnetic beads (about 0.20 ug NGAL per uL beads)", "values": [{"binder": "B4", "binding signal": "> 4 dCt (cycles vs bare beads)"}, {"binder": "B5", "binding signal": "> 4 dCt (cycles vs bare beads)"}, {"binder": "B6", "binding signal": "> 4 dCt (cycles vs bare beads)"}, {"binder": "B7", "binding signal": "> 4 dCt (cycles vs bare beads)"}]}]}
